Laboratory results published in PMC8543862, “Characterization of a highly xylose tolerant β-xylosidase isolated from high temperature horse manure compost” (BMC Biotechnology, 2021).

Tested on: O=[N+]([O-])c1ccc(O[C@@H]2OC[C@@H](O)[C@H](O)[C@H]2O)cc1
Assay: purified protein
Type: biochemical, uncultured bacterium
Conditions: 50 mM sodium phosphate pH 6, 37 °C, 20 min, 1-20 mM substrate, kcat unit not given

Substance: XylP81 (uncultured bacterium)
- Km: 5.3 mM
